Legend:
Conditions in all cases: FMN input: 0 or 200 uM; Eterna round: R93 (includes R88 designs)
MS2 coat protein [1] = test: apparent KD of MS2 coat protein, switch ON state; designed switch direction (-1 OFF switch, 1 ON switch): 1; higher = weaker reporter binding
In short: (§1)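 Illumina sequencing clusters were used for on-chip transcription of designed RNA switches. Titration with SNAP-549-labelled MS2 coat protein followed, in twofold steps from 0.7 or 1.5 nM to 3 µM in 100 mM Tris-HCl pH 7.5, 80 mM KCl, 4 mM MgCl2, without or with constant ligand. Apparent KD is each design's median of fits to normalised cluster binding curves.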

MS2 coat protein [2] = test: apparent KD of MS2 coat protein, switch OFF state (with FMN for OFF switches, without FMN for ON switches); designed switch direction (-1 OFF switch, 1 ON switch): 1; higher = weaker reporter binding
In short: as §1

MS2 coat protein [3] = test: apparent KD of MS2 coat protein, switch ON state; designed switch direction (-1 OFF switch, 1 ON switch): -1; higher = weaker reporter binding
In short: as §1

MS2 coat protein [4] = test: apparent KD of MS2 coat protein, switch OFF state (with FMN for OFF switches, without FMN for ON switches); designed switch direction (-1 OFF switch, 1 ON switch): -1; higher = weaker reporter binding
In short: as §1

Sequence | apparent KD of MS2 coat protein (MS2 coat protein [1]) [nM] | apparent KD of MS2 coat protein (MS2 coat protein [2]) [nM] | apparent KD of MS2 coat protein (MS2 coat protein [3]) [nM] | apparent KD of MS2 coat protein (MS2 coat protein [4]) [nM]
AGACAUAAAAGAGAGGAUAUCCAAAAGAAAACAUGAGGAUCACCCAUGUAAAAGAAAAUAAAAUGGGAGAAGGCUCACAUACAGA [Topaz 35] | 19 | 50.4 | – | –
AACAAUCUAUCUGAGGAUAUAUGUCAAAAGACAUGAGGAUCACCCAUGUAAAAACAUGAAAAAUCAUAGAAGGCAGAUAGAUUGA [SS2: 1135] | 67.3 | 88.3 | – | –
AUCAGGAAGAGAGAGGAUAUCCAAAGGAAAACAUGAGGAUCACCCAUGUAAAAGGUAGGAAAUUGGGAGAAGGCUCAAGAGAGAG [salish99-ss2-093] | 26.4 | 29.3 | – | –
UUAAGCCACGGGCAGGAUAUGUAUUAAAAUACAUGAGGAUCACCCAUGUGCAGGUGUAACACCUGACAGAAGGGCCAAUCGCGGC [Soondi] | 21.5 | 241 | – | –
AAAAAACAUGAGGAUCACCCAUGUAACACUCAUGUAGGAUAUACAAAAAAAAAAAAAAAAGUAGAAGGACAAAAAA [Omei A variation 3] | 143 | 293 | – | –
AGAAAACAUGAGGAUCACCCAUGUAGAAAUAUGGGAGGAUAUACAAAGACGAAAGUCGAGGUAGAAGGCCUAAAGA [Mat - Same State 1 - Meechl mod - D122] | 21.7 | 103 | – | –
AAAAAAAAAUCACAGGAUAUACGAAAAAAAACAUGAGGAUCACCCAUGUGAAAAAAAAAAAAAAAGUAGAAGGGUGAUCCAAAAAA | 12.6 | 8.77 | – | –
ACCCGCAGCCGUCAGGAUAUGUUCGCGUCAACAUGAGGAUCACCCAUGUGUGACAAGAAGUACACGCAGAAGGGAUCAAUGCGGG [Bienri] | 13.7 | 16.4 | – | –
AGAAAUAAAACACAGGAUAUGAAAAAGAAAACAUGAGGAUCACCCAUGUAAAAGAAAAAUAAAAAUCAGAAGGGUGAAAAUAAAG [Put G segment last in JL design (80%)] | 59 | 205 | – | –
AACAAUCUAUCUGAGGAUAUGUGUCGAAAGACAUGAGGAUCACCCAUGUGAAAACAUGAAAAGAUACAGAAGGCAGAUAGAUUGA [SS2: 1155] | 26.6 | 35.9 | – | –
AAGAAACAUGAGGAUCACCCAUGUAGAAAUAUGGGAGGAUAUACGAAGACGAAAGUCAAAGUAGAAGGCCUAAAAG [Mat - Same State 1 - Eli mod - D107] | 21 | 68.7 | – | –
AAGAAAGAAACGUAGGAUAUCAAGAAUAUAACAUGAGGAUCACCCAUGUAAAUACGAAAGUAUAAUGAGAAGGAUGGAUGAUCUUC [Mod of Mat of Meechl] | 22.7 | 32.8 | – | –
CGGAGACAUGAGGAUCACCCAUGUGAGAAGAGGCGAGGAUAUCGAAAGAAAGAAGAGAAACGAGAAGGCGCGAGGA [salish99-SS1-067] | 22.7 | 38.8 | – | –
CCGAUGGUAUACUAGGAUAUGGGCGCCCUUACAUGAGGAUCACCCAUGUUUACACAAAUCCGCGGCCAGAAGGAGUUCAUGGGAG [Orgere] | 90.3 | 163 | – | –
CAAACAACAGCACAGGAUAUCCAUAUAAUAACAUGAGGAUCACCCAUGUAAGCGGAAAAUAACGCGGAGAAGGGUGAACACACAA [Default title] | 130 | 35.1 | – | –
AAAAAACAAAGAGAGGAUAUCCUAAAAAAAACAUGAGGAUCACCCAUGUAAAGAAAUUUAAAAUGGGAGAAGGCUCUUUGAAAAA [Same State 2.6d ( Helter Skelter 1)] | 12.4 | 23.2 | – | –
AGCACGUGAUUGGAGGAUAUGUAGUAAGCAACAUGAGGAUCACCCAUGUCUGAGGCUGAAAACCAGCAGAAGGCCGAUACAACCA [SS2-1.6] | 15.3 | 22.7 | – | –
AAUCCAAAUAGUUAGGAUAUGGGAAUUAAGACAUGAGGAUCACCCAUGUAAUUAAAACAAGUUAACCAGAAGGGACAGGGUGAAA [JR_SS002_Sub207] | 160 | 112 | – | –
AAAAAACAUGAGGAUCACCCAUGUGAGAACAUGGGAGGAUAUACAAGGACGAGAGUCAAGGUAGAAGGCCUAAAGA [Mat - Same State 1 - Mod - D193] | 545 | 21.1 | – | –
GAAAAACAUGAGGAUCACCCAUGUAGAAAUAUGGGAGGAUAUACUAUGACGAAAGUCAAAGUAGAAGGUCUAAAAG [JL S1 M-MoE mod 6 In the Read] | 166 | 125 | – | –
AACAAUCUAUCUGAGGAUAUGUGUCGAAAGACAUGAGGAUCACCCAUGUAAAAACAUGGGAAGAUACAGAAGGCAGAUAGAUUGA [SS2: 1161] | 203 | 29.3 | – | –

Sequence | apparent KD of MS2 coat protein (MS2 coat protein [1]) [nM] | apparent KD of MS2 coat protein (MS2 coat protein [2]) [nM] | apparent KD of MS2 coat protein (MS2 coat protein [3]) [nM] | apparent KD of MS2 coat protein (MS2 coat protein [4]) [nM]
GAAAAACAUGAGGAUCACCCAUGUAGAAACUAGGGAGGAUAUACUAAGACGAAAGUCGAAGUAGAAGGCCUUUAAA [Same State 1.4m (Mat - Mod of Eli - )] | 14.2 | 14.7 | – | –
GAUCCGACUAGUCAGGAUAUCAGGCGUAAGACAUGAGGAUCACCCAUGUCCUAAGAACAAGUAACUGAGAAGGGACAGGGCGACC [JR_SS002_Sub413] | 62.3 | 62.4 | – | –
AUAAAAUAAAGUCAGGAUAUCCAUAAUAAAACAUGAGGAUCACCCAUGUUAAAAAAAAGAUCAUGGGAGAAGGGACAAAAUAAAU [SS2 M 33] | 28.6 | 57.6 | – | –
AGAAAACAUGAGGAUCACCCAUGUGACAAUAUGGGAGGAUAUACGAACACGAAAGUCGAAGUAGAAGGCCUAAAGA [Garnet 53] | 26.3 | 75.7 | – | –
GAGGACGUAGGAUAGGAUAUAUGAAUAAUUACAUGAGGAUCACCCAUGUCCAUUUAUAUGGGAACAUAGAAGGGUUGUGGUUAUC [SameState2 Malc#35] | 446 | 491 | – | –
GAAGACAUAGUUCAGGAUAUAUGAAUAGUCACAUGAGGAUCACCCAUGUGCAUUUAUAUGCGCACAUAGAAGGGAGGUAGUUAUC [SameState2 Malc#24] | 33.6 | 23.5 | – | –
AAAAAACAUGAGGAUCACCCAUGUCCUCGGACGUGAGGAUAUGUACAGACUUCGGUCUGUACAGAAGGCACAAAAA [SS1 - 1034] | 1240 | 333 | – | –
AUAACACAUGAGGAUCACCCAUGUAGAAACAAGUCAGGAUAUGCAACCUCAUGAAAUAAAGCAGAAGGGACAAUAA [SS 1 Tesla 4] | 26.4 | 88 | – | –
AAAUAGUUAGGAUAUACAUGAGGAUCACCCAUGUGGACUUAUGGCGAAUAAUUUAGUGGUAGAAGGGACUAAAA [EX2 Malc#28] | – | – | 62.9 | 53.8
AAAACACAUGAGGAUCACCCAUGUCAGGAUAUACGAGAAAGAAAAGAAAAGAAAAGAAGUAGAAGGGACUAGAA [Exclusion1 Malc#3] | – | – | 15.7 | 22.4
CUCUUGUCAGGAUAUAGAAGAAAAGAAAAGAAAGAAAAGAACUAGAAGGGACAUGAGGAUCACCCAUGUAAGAA [EteRNA is fun!] | – | – | 87.5 | 62.9
AAAAAUGCAGGAUAUACGAACAUGUCAAAAGACGUGAAGGGACAUGAGGAUCACCCAUGUAGAAGGGUAAAGAA [JL Neck Breaker 14] | – | – | 248 | 46
AAAAUGUCAGGAUAUGCGAAGGCGUCUGAUAGACGAGGCUAGCAGAAGGGACAUGAGGAUCACCCAUGUGGAAA [Power strip 63% 2] | – | – | 125 | 128
AAAAAGUCAGGAUAUACGGGAGUGCGAAAGCACAAAAAAAAACAUGAGGAUCACCCAUGUAGAAGGGACAAGAA [Married to this design, 61% 5] | – | – | 46.1 | 34.5
AAAAAGCGAGGAUAUACAUGAGGAUCACCCAUGUGAGAGAAAAAAAGGAGAAAAAAAAGUAGAAGGCGCAAAAA [Abraham Harold Maslow] | – | – | 63.8 | 68.3
AAAAAGAGAGGAUAUACAUGAGGAUCACCCAUGUGACACAAAAUAAAUAAAAUAAAGUGUAGAAGGCUCAAAAA [65%, Moding Exclusion3-cac2, 20] | – | – | 23.8 | 78.2
GCUGGCCUAGGAUAUACAUGAGGAUCACCCAUGUGAGAGAAAAAAGUGAGAAAGAAAAGUAGAAGGAGGUUAGG [salish99-ex3-115] | – | – | 50.2 | 57.2
AGCUAGUCAGGAUAUACGAGAAAGAAAGAAGAAGUGAAGGGACAUGAGGAUCACCCAUGUAGAAGGGACUAGCA [Diamond 27] | – | – | 51.9 | 160
CUCUUGUCAGGAUAUGUAAGAAAAGAAGAGAAAGAAAAGAAACAGAAGGGACAUGAGGAUCACCCAUGUAAGAA [EteRNA is fun!] | – | – | 66.4 | 77
GGAUGGGAAGGAUAUACAUGAGGAUCACCCAUGUGAGAGAAAAAAGUGAGAAAGAAAAGUAGAAGGUCUUGUCG [salish99-ex3-85] | – | – | 82.5 | 99.1
AAAAAGUCAGGAUAUGCUUAUAAUAAGAAAAUUAGAGAUAUGCAGAAGGGACAUGAGGAUCACCCAUGUAAAAA [Ex 4.1] | – | – | 53.2 | 36.4
